Measurements from publication PMC10127259.

Tests used:
Settings in all cases: remark: other sources report otherwise
[1] = target: T1, Nt17 peptide (the first 17 amino acids at the N-terminus of huntingtin), P42858; assay: native MS; cVSSI-MS, positive ion mode; Nt17 10 uM incubated with DOPC vesicles with 20% exogenous cholesterol, 10:1 lipid:peptide, 24 h at 37 °C, 10 mM ammonium acetate; peak areas normalised to [M + 2H]2+
T1 chain: MATLEKLMKAFESLKSF

[2] = target: T1, Nt17 peptide (the first 17 amino acids …); assay: native MS; cVSSI-MS, positive ion mode; Nt17 10 uM incubated with POPC vesicles with 20% exogenous cholesterol, 10:1 lipid:peptide, 24 h at 37 °C, 10 mM ammonium acetate; peak areas normalised to [M + 2H]2+
[3] = target: T1, Nt17 peptide (the first 17 amino acids …); assay: native MS; cVSSI-MS, positive ion mode; Nt17 10 uM incubated with POPG vesicles with 20% exogenous cholesterol, 10:1 lipid:peptide, 24 h at 37 °C, 10 mM ammonium acetate; peak areas normalised to [M + 2H]2+
[4] = target: T1, Nt17 peptide (the first 17 amino acids …); assay: native MS; cVSSI-MS, positive ion mode; Nt17 10 uM incubated with pure POPC vesicles (0% cholesterol), 10:1 lipid:peptide, 24 h at 37 °C, 10 mM ammonium acetate; peak areas normalised to [M + 2H]2+
[5] = target: T1, Nt17 peptide (the first 17 amino acids …); assay: native MS; cVSSI-MS, positive ion mode; Nt17 10 uM incubated with pure DOPC vesicles (0% cholesterol), 10:1 lipid:peptide, 24 h at 37 °C, 10 mM ammonium acetate; peak areas normalised to [M + 2H]2+

- relative peak area of [2M + 3L] (2 Nt17 + 3 DOPC), against [M + 2H]2+ [1]: 0.15%
- total relative peak area of complexes with four peptides, against [M + 2H]2+ [1]: 1.2%
- total relative peak area of complexes with three peptides, against [M + 2H]2+ [1]: 4%
- total relative peak area of complexes with two peptides, against [M + 2H]2+ [1]: 8%
- relative integrated peak area of [2M + 2L] (2 Nt17 + 2 POPC), against [M + 2H]2+ [2]: 0.11%
- relative integrated peak area of [3M + 1L] (3 Nt17 + 1 POPC), against [M + 2H]2+ [2]: 1.1%
- total relative integrated peak area of complexes with two peptides, against [M + 2H]2+ [2]: 2.7%
- relative peak area of [2M + 2L] (2 Nt17 + 2 POPG), against [M + 2H]2+ [3]: 23%
- relative peak area of [2M + 3L] (2 Nt17 + 3 POPG), against [M + 2H]2+ [3]: 0.6%
- stoichiometry N [3]: 2
- relative integrated peak area of [2M + 1L] (2 Nt17 + 1 POPC), against [M + 2H]2+ [4]: 1.3%
- relative integrated peak area of [3M + 1L] (3 Nt17 + 1 POPC), against [M + 2H]2+ [4]: 0.8%
- relative peak area of [2M + 3L] (2 Nt17 + 3 DOPC), against [M + 2H]2+ [5]: 0.45%
- relative peak area of [3M + 1L] (3 Nt17 + 1 DOPC), against [M + 2H]2+ [5]: 3.3%
- relative peak area of [4M + 1L] (4 Nt17 + 1 DOPC), against [M + 2H]2+ [5]: 0.98%
- total relative peak area of complexes with three peptides, against [M + 2H]2+ [5]: 3.6%
- total relative peak area of complexes with two peptides, against [M + 2H]2+ [5]: 10.3%
B1: Nt17 peptide (the first 17 amino acids at the N-terminus of huntingtin), P42858 1-17 (peptide)
peptide: MATLEKLMKAFESLKSF
